Data set [1] has as its system CC(C)C[C@H](N)C(=O)Nc1ccc([N+](=O)[O-])cc1. As to the kind of experiment: purified protein, by the assay type. The following applies: 25.0 °C.
For data set [2], the system named is N=C(N)NCCC[C@H](N)C(=O)Nc1ccc([N+](=O)[O-])cc1. In words: purified protein, by the assay type. The following applies: other: aa-pNA varied, 3 mM MnCl2, 100 nM PaPepA, pH 8.0, 25 °C, pH 8.0.

Consider “PaPepA (Pseudomonas aeruginosa UCBPP-PA14)”, for which the Km in data set [1] (other: 5 % PEG 8000, Leu-pNA varied) amounted to 110 µM. The Km in data set [1] (other: H2O (0% PEG-8000), Leu-pNA varied) was found to be 86.9 µM. In addition, in data set [2], the Km is 120 ± 20 µM, the kcat worked out at 0.052 s⁻¹ and the kcat/Km was found to be 440 M⁻¹ s⁻¹.

These data come from article PMC10666288, “Unveiling the Catalytic Mechanism of a Processive Metalloaminopeptidase” (Biochemistry, 2023).
